The stoichiometry N is a count of units in the complex or per binding partner.

In assay [1] the target is T1, StrepII-GFP-RTCB (human, UniProt Q9Y3I0 1-505).
T1 sequence (looked up): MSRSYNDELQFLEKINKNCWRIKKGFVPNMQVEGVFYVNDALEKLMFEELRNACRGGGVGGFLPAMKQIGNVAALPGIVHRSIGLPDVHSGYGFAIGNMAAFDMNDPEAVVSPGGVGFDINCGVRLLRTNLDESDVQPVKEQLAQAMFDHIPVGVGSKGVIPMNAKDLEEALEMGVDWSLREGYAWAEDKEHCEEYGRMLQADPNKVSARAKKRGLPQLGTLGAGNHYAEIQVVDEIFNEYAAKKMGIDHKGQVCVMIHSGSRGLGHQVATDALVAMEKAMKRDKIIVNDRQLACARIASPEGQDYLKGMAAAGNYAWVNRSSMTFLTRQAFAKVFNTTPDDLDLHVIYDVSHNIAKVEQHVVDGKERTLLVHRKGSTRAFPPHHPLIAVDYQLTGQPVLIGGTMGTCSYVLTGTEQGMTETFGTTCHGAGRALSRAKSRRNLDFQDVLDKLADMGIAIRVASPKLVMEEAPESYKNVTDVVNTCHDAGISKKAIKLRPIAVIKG
Kind of assay: pull-down.

Assay [2] has as its target T1, StrepII-GFP-RTCB. As to the kind of experiment: pull-down. This is another data set of the same source.
Assay [3] has as its target T2, RTCB (un-guanylylated, apo-RTCB) (human, UniProt Q9Y3I0 1-505).
T2 sequence (looked up): T1 sequence (looked up)
As to the kind of experiment: cryo-EM structure.

Substitutions are numbered along the chain they refer to. Names may count otherwise.

B1: PYROXD1 Δ500 (domain or fragment, human, UniProt Q8WU10 1-499, looked up)
chain: MEAARPPPTAGKFVVVGGGIAGVTCAEQLATHFPSEDILLVTASPVIKAVTNFKQISKILEEFDVEEQSSTMLGKRFPNIKVIESGVKQLKSEEHCIVTEDGNQHVYKKLCLCAGAKPKLICEGNPYVLGIRDTDSAQEFQKQLTKAKRIMIIGNGGIALELVYEIEGCEVIWAIKDKAIGNTFFDAGAAEFLTSKLIAEKSEAKIAHKRTRYTTEGRKKEARSKSKADNVGSALGPDWHEGLNLKGTKEFSHKIHLETMCEVKKIYLQDEFRILKKKSFTFPRDHKSVTADTEMWPVYVELTNEKIYGCDFIVSATGVTPNVEPFLHGNSFDLGEDGGLKVDDHMHTSLPDIYAAGDICTTSWQLSPVWQQMRLWTQARQMGWYAAKCMAAASSGDSIDMDFSFELFAHVTKFFNYKVVLLGKYNAQGLGSDHELMLRCTKGREYIKVVMQNGRMMGAVLIGETDLEETFENLILNQMNLSSYGEDLLDPNIDIEDYF
On to B1, for which the binding result with StrepII-GFP-RTCB [1] is “binds”.

B2: PYROXD1 (wild type) (enzyme, human, UniProt Q8WU10 1-500, looked up)
chain: MEAARPPPTAGKFVVVGGGIAGVTCAEQLATHFPSEDILLVTASPVIKAVTNFKQISKILEEFDVEEQSSTMLGKRFPNIKVIESGVKQLKSEEHCIVTEDGNQHVYKKLCLCAGAKPKLICEGNPYVLGIRDTDSAQEFQKQLTKAKRIMIIGNGGIALELVYEIEGCEVIWAIKDKAIGNTFFDAGAAEFLTSKLIAEKSEAKIAHKRTRYTTEGRKKEARSKSKADNVGSALGPDWHEGLNLKGTKEFSHKIHLETMCEVKKIYLQDEFRILKKKSFTFPRDHKSVTADTEMWPVYVELTNEKIYGCDFIVSATGVTPNVEPFLHGNSFDLGEDGGLKVDDHMHTSLPDIYAAGDICTTSWQLSPVWQQMRLWTQARQMGWYAAKCMAAASSGDSIDMDFSFELFAHVTKFFNYKVVLLGKYNAQGLGSDHELMLRCTKGREYIKVVMQNGRMMGAVLIGETDLEETFENLILNQMNLSSYGEDLLDPNIDIEDYFD
Regarding B2, the “half-life of the complex upon NADH removal” value with StrepII-GFP-RTCB [2] was ~2 min. The “stoichiometry N” value in assay [3] turned out to be 1.

B3: PYROXD1 D500A (enzyme, human, UniProt Q8WU10 1-500, looked up)
chain: B2 chain with D500A
Turning to B3, in the assay with StrepII-GFP-RTCB [1], the binding result is reported as “binds”.

For the origin of these results see paper doi:10.1101/2023.04.06.535761 (bioRxiv, 2023).
